Results on 4 molecules are retold here after patent US20240400718A1.

Sequences and labels used below:
B1: 2D12-B12 (antibody, V domains shown)
VH: EVKLVESGGGLVQPGRSLKLSCAASGFNFNDYWMGWVRQAPGKGLEWIGEIKKDSSIINYIPSLKDKFTISRDNAQNTLYLQMSKLGSEDTAIYYCARGVEYYGYHYWGQGTLVTVSS
VL: DIVMTQSPSSLAVSAGETVTINCKSSQSLLYSGNQKNYLAWYQQKPGQSPKLLIYWASTRHSGVPARFIGSGSGSDFTLTISSVQAEDLAIYCCQQYYDIPYTFGAGTKLELK
B2: 3A4-A10-7 (antibody, V domains shown)
VH: QVQLQQSGAALVKPGASVKMSCKASGYTFTDCWVSWVKQSHGKSLEWIGEIHPNSGTTNFNEKFKGKATLTVDKSTSTAYMELSRLTSEDSAIYYCTRAYGGYPFDYWGQGVMVTVSS
VL: ADLVLTQPKSVSTSLESTVKLSCKLNSGNIGRYYMHWYQQHEGRSPTNMIYRDDKRPDGVPDRFSGSIDSSSNSAFLTINNVQTEDEAIYFCHSYDSSINIFGGGTKLTVLG
B3: 3E7-C1 (antibody, V domains shown)
VH: QVQMKESGPGLVQPSETLSLTCTVSGFSLTSYGVSWVRQPSGKGPEWMGRLWNDGDTAYNSALKSRLSISRDTSKNQVFLKMNSLQTDDTGTYYCTTMNGYKDYWGQGVMVTVSS
VL: TSYELIQPPSASVTLGNTVSLTCVGDELPKRYAYWYQQKPDQSIVRVIYEDSKRPSGISDRFSGSSSGTTATLTIRDAQAEDEADYYCHSTYSDDKLRIFGGGTKLTVLG
B4: 4B9-B11 (antibody, V domains shown)
VH: QMQLKESGPGLVQPSETLSLTCTVSGFSLTSYSVSWVRQPSGKGPEWMGRMYYDGDTAYNSALKSRLSISRDTSKNQVFLKMNSLQTDDTGTYYCTRSIGAEDYWGQGVMVTVSS
VL: B3 VL with A80N

Where a chain is given by its changes, count along the chain named.

Sequence of S#076: VH-L2-VL CAR-T (main, as listed by the source): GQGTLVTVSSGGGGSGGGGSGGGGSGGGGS
Sequence of S#097: VL-L2-VH CAR-T (main, as listed by the source): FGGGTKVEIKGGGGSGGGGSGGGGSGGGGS
Sequence of #231: CAR with VL-L1-VH scFv, Human 3rd-generation (main, as listed by the source): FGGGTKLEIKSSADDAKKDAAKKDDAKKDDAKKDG

For one assay, the target named is S#066: VL-L2-VH CAR-T. As to the kind of experiment: flow cytometry on CAR-T cells; PE-labeled secondary antibody; PE-positive cells / total cells. (In general: Flow cytometry measures light scatter and fluorescence of single cells or particles in a stream.)
Sequence of S#066: VL-L2-VH CAR-T (main, as listed by the source): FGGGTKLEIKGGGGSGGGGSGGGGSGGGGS
The molecule B1 came in with a Reactivity (%) of 0.9%.
For B2, the Reactivity (%) was determined as 0.2%.
B3: the Reactivity (%) was 0.1%.
Take B4: the Reactivity (%) is 0.1%.

The target of the next assay is #371: VL-L2-VH CAR-T. The assay is described as above.
The molecule B1 came in with a Reactivity (%) of 0.2%.
B2 gave a Reactivity (%) of 0.2%.
On the same count and under the same terms, the same measure for B3: 0%; for B4: 0.1%.

A further assay has as its target S#076: VH-L2-VL CAR-T. The assay is described as above.
B1 came in with a Reactivity (%) of 0.2%.
B2 had a Reactivity (%) of 0.2%.
Still for that read-out and setting: the figure for B3 is 0.1%; for B4 it is 0.2%.

The target in the next assay is S#075: CAR with VL-L1-VH scFv, Human 2nd-generation (4-1BB)_hIL7_hCCL19_HSVtk. The assay is described as above.
With B1, the Reactivity (%) was determined as 15%.
Take B2: the Reactivity (%) was 12.3%.
Turning to B3, the Reactivity (%) is 25.9%.
Consider B4, for which the Reactivity (%) worked out at 35.7%.

The target of the next assay is S#074: VL-L2-VH CAR-T. The assay is described as above.
The molecule B1 came in with a Reactivity (%) of 0.8%.
B2 came in with a Reactivity (%) of 0.2%.
B3 came in with a Reactivity (%) of 0.1%.
For the molecule B4, the Reactivity (%) was determined as 1.4%.

In another assay the target is S#104: VL-L1-VH CAR-T. Described as above.
The molecule B1 registered a Reactivity (%) of 13.4%.
For B2, the Reactivity (%) was determined as 5.2%.
Consider B3, for which the Reactivity (%) amounted to 21.5%.
In turn, B4 had a Reactivity (%) of 29.1%.

The target in a further assay is #264: VH-L1-VL CAR-T. The assay is described as above.
Take B1: the Reactivity (%) is 11.1%.
Still for that read-out and setting: the same measure for B2: 36.7%.
Still for that read-out and setting: the same measure for B3: 0%; for B4: 0%.

The target of a further assay is S#017: CAR with VH-L2-VL scFv, Human 3rd-generation_hIL7_hCCL19_HSVtk. The description is as above.
B1 gave a Reactivity (%) of 0%.
B2 showed a Reactivity (%) of 0%.
In turn, B3 returned a Reactivity (%) of 0%.
Turning to B4, the Reactivity (%) was found to be 0%.

The target in a further assay is S#031: CAR with VH-L1-VL scFv, Human 3rd-generation_hIL7_hCCL19_HSVtk. The assay is described as above.
B1: the Reactivity (%) is 64.6%.
Turning to B2, the Reactivity (%) was determined as 45.3%.
Regarding B3, the Reactivity (%) was determined as 2.2%.
Molecule B4 yielded a Reactivity (%) of 9.7%.

In a further assay the target is S#085: VL-L1-VH CAR-T. The assay is described as above.
In turn, B1 had a Reactivity (%) of 0.8%.
B2: the Reactivity (%) was 2.2%.
Turning to B3, the Reactivity (%) turned out to be 41.4%.
B4: the Reactivity (%) worked out at 49.6%.

A further assay deals with #651: VH-L2-VL CAR-T. Described as above.
In the case of B1, the Reactivity (%) worked out at 0.4%.
As for B2, the Reactivity (%) is 0.2%.
As for B3, the Reactivity (%) was determined as 0.1%.
On the same count and under the same terms, the same measure for B4: 0.2%.

A further assay has as its target S#067: CAR with VL-L1-VH scFv, Human 2nd-generation (4-1BB)_hIL7_hCCL19_HSVtk. Described as above.
Regarding B1, the Reactivity (%) is 34.9%.
Consider B2, for which the Reactivity (%) worked out at 22.3%.
B3 returned a Reactivity (%) of 41%.
B4 gave a Reactivity (%) of 41.5%.

For another assay, the target named is S#027: VH-L1-VL CAR-T. Described as above.
B1 gave a Reactivity (%) of 28.4%.
With B2, the Reactivity (%) amounted to 45.7%.
Molecule B3 yielded a Reactivity (%) of 0%.
Take B4: the Reactivity (%) was 1%.

Another assay concerns the target S#097: VL-L2-VH CAR-T. The description is as above.
B1 returned a Reactivity (%) of 0.3%.
Consider B2, for which the Reactivity (%) amounted to 0.1%.
B3 showed a Reactivity (%) of 0%.
B4 returned a Reactivity (%) of 0.1%.

For a further assay, the target named is S#084: VL-L2-VH CAR-T. Described as above.
For B1, the Reactivity (%) came out at 0.3%.
For the molecule B2, the Reactivity (%) was 0.1%.
B3 registered a Reactivity (%) of 0%.
In the case of B4, the Reactivity (%) was 0.1%.

The target of another assay is #628: VH-L2-VL CAR-T. Described as above.
As for B1, the Reactivity (%) was found to be 0.2%.
On the same count and under the same terms, the same measure for B2: 0.1%; for B3: 0%; for B4: 0.2%.

Another assay concerns the target S#050: VH-L1-VL CAR-T. Described as above.
Molecule B1 returned a Reactivity (%) of 14.5%.
Consider B2, for which the Reactivity (%) is 18.5%.
Same read-out and setting: the figure for B3 is 0.1%; for B4 it is 1.1%.

The next assay concerns the target #231: CAR with VL-L1-VH scFv, Human 3rd-generation. Described as above.
In turn, B1 registered a Reactivity (%) of 67.4%.
The same measure, in the same setting: the same measure for B2: 23.9%.
Take B3: the Reactivity (%) was 69.6%.
With B4, the Reactivity (%) was 74.6%.

Another assay shares this target. Kind of assay: subclone supernatant on HEK293T cells transiently expressing the scFv; % positive cells.
The molecule B3 showed a Positive (%) of 24.5%.
With B4, the Positive (%) came out at 60%.
